Consider 1 substance from paper PMC4813479, “β-Subunit Binding Is Sufficient for Ligands to Open the Integrin αIIbβ3 Headpiece” (The Journal of Biological Chemistry, 2015).

For the experiment, the target named is full-length human αIIbβ3 on CHO K1 cells (human) (UniProt P08514).

fibronectin hexapeptide GRGDSP gave an EC50 of LIBS1 epitope exposure on CHO cells expressing αIIbβ3 (flow cytometry, 1 mM Mg2+ and 1 mM Ca2+) of 210 µM.
